Results on eight molecules are retold here after US20050142568A1 (published 2005).

The chains are these.
B1: GST-CRN-1 (other, C. elegans, UniProt Q9N3T2 21-382, looked up)
chain: NEMKAFFGRTVAIDASMCLYQFLIAVRQDGSQLQSEDGETTSHLMGMLNRTVRMFENGVKPVYVFDGKPPDMKGGELEKRSERRAEAEKALTEAKEKGDVKEAEKFERRLVKVTKQQNDEAKRLLGLMGIPVVEAPCEAEAQCAHLVKAGKVFGTVTEDMDALTFGSTVLLRHFLAPVAKKIPIKEFNLSLALEEMKLSVEEFIDLCILLGCDYCGTIRGVGPKKAVELIRQHKNIETILENIDQNKYPPPEDWPYKRARELFLNPEVTKPEEVELTWKEADVEGVIQFLCGEKNFNEERIRNALAKLKTSRKSGTQGRIDSFFGNSTKVTCVTAATKRKAEEAEKAKKGAKKGGPPKKRAK
notes: also called CRN-1 GST-fusion protein; not shown: glutathione S-transferase tag encoded by vector pGEX4T-2
B5: GST-NUC-1 (other, C. elegans, UniProt Q17778 22-375, looked up)
chain: AFSCKDQSGNDVDWFAVYKMPIEKDDGSVTGLAGGVAWYYVDVNKKGTLTPSAKTLDDNDQAIAYTLQQYYDKQNDKTIFHVMYNDEPWGSKSTSGIKLEEILSNRVYSNYTHEDDSTSTAFGHTKGTIFFDGTSGVWLVHSVPLFPNPTKYEYPVSGHDYGQTMLCMTFKYAQLKSIGTQLFFNRPNIYSSNLPTNMAADNADLAKAIAGQYQKGQPFQSVIELETMAGYSFTNFAKSKEFNADLYDTLVAPTLKTDLVVETWRRGSEIPLDCKLTYHANDALSIHVGSTTAFSYTKDHSKMAHSADMTKPWVCIGDINRMTSQYVRGGGTTCISSSFLWKAYSVIATQNNCA
notes: also called NUC-1 GST-fusion protein; not shown: glutathione S-transferase tag encoded by vector pGEX4T-2
B6: ^35S-Methionine labeled CRN-6 (enzyme, C. elegans, UniProt P34508-2 18-373, looked up)
chain: AYQCKDNNGSNVDWFVFYKLPHLWNHPDNVPISNGTGFLYFDVNNKNWKLMPQGMDVENNAVYYTLQQYYNSNMNTTFSYMYNDEWPDSTIWSNSSGHAKGVTVFDQYTGFWMIHSIPKFPSKDMFRFPSNAHYYGQMGICISYNTVSLATIAQQLFYYNTFTYQFNLPQSFANQFPVLSQLKNKEYNKSPPLTSTKVLKSLGGQHFRHFAKTGEWGKDLYSDFVGPTLKSSIKVETWNHQSGDEYNLPSVCDPNHVQSTMSAKYIRLPYAIDYSSYEDHSKFVVAYSESSSKPPIPYVCIGDINRQSHQIHRGGGTMCIYDQETYFQFANIISETVPCTKATAEKVDALANNRYF
modifications: 35S-methionine labelled

What all share (assay): GST pull-down, 35S-Met protein vs GST fusion; - means no detectable binding (footnote a)
Experiment [1] has as its target T1, ^35S-Methionine labeled CRN-3 (C. elegans, UniProt G5EBX6 1-876).
T1 sequence: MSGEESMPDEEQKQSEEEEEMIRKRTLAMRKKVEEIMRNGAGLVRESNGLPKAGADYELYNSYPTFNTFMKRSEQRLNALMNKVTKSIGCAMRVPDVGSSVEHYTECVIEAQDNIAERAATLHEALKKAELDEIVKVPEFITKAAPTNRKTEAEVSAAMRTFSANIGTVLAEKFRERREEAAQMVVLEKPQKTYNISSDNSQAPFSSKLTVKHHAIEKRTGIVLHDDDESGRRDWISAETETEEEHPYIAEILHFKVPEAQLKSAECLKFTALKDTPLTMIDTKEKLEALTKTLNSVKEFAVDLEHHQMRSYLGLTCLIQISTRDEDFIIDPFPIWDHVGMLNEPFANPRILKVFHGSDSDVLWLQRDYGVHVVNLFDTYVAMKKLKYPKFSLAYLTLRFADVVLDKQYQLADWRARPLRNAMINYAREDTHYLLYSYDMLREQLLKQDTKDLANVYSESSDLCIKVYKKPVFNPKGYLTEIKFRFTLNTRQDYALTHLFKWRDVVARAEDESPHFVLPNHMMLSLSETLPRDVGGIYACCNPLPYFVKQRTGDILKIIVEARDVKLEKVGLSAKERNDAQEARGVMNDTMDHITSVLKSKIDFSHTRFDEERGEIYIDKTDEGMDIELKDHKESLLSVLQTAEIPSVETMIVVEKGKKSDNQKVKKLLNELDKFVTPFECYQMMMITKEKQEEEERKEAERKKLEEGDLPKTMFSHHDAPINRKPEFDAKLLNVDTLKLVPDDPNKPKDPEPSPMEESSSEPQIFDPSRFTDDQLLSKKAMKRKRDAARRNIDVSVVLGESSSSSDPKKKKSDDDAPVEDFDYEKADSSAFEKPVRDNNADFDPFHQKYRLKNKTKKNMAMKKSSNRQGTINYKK
Here is the method:
(§1) GST fusion protein pull-down assays were performed as described in J. Parrish, H. Metters, L. Chen, D. Xue, Proc. Natl. Acad. Sci. U.S.A. 97, 11916 (2000). Purified GST or GST-fusion proteins (5 μg each) immobilized on glutathione sepharose beads were incubated with ³⁵S-Methionine labeled proteins at 4° C. for 2 hours. The beads were washed extensively and the bound proteins were resolved on a 12% SDS-PAGE and visualized by autoradiography. [0103] cDNAs corresponding to the ORFs were cloned into the pPD129.36 vector via its Nhe I and Xho I sites or the Xho I site alone. Full-length cDNAs were subcloned into the pGEX4T-2 vector for generating GST fusion proteins and for further protein purification and into the pcDNA3.1 vector for in vitro transcription/translation experiments.
(§2) ^aInteractions were evaluated relative to background binding of ³⁵S-Methionine labeled Luciferase to GST-fusion proteins and ³⁵S-Methionine labeled proteins to GST. “−” indicates no detectable binding, “+” indicates an interaction consistently observed above background levels, and “++” indicates a strong interaction. ^bBecause ³⁵S-Methionine labeled CRN-1 binds GST tightly, it was not possible to evaluate interactions between ³⁵S-CRN-1 and various GST-fusion proteins. ND, not determined.

Experiment [2] addresses T2, GST (glutathione-S transferase alone) (UniProt P08515 1-218 = GST).
T2 construct: Purified GST used as negative control bait on glutathione sepharose beads; also called OST
Here is the method: as §1, §2

The experiment “GST-NUC-1” has as its target B5. The procedure: as §1, §2
A further experiment has as its target T3, GST-CRN-3 (C. elegans, UniProt G5EBX6 1-876).
T3 construct: also called CRN-3 GST-fusion protein; not shown: glutathione S-transferase tag encoded by vector pGEX4T-2
T3 sequence: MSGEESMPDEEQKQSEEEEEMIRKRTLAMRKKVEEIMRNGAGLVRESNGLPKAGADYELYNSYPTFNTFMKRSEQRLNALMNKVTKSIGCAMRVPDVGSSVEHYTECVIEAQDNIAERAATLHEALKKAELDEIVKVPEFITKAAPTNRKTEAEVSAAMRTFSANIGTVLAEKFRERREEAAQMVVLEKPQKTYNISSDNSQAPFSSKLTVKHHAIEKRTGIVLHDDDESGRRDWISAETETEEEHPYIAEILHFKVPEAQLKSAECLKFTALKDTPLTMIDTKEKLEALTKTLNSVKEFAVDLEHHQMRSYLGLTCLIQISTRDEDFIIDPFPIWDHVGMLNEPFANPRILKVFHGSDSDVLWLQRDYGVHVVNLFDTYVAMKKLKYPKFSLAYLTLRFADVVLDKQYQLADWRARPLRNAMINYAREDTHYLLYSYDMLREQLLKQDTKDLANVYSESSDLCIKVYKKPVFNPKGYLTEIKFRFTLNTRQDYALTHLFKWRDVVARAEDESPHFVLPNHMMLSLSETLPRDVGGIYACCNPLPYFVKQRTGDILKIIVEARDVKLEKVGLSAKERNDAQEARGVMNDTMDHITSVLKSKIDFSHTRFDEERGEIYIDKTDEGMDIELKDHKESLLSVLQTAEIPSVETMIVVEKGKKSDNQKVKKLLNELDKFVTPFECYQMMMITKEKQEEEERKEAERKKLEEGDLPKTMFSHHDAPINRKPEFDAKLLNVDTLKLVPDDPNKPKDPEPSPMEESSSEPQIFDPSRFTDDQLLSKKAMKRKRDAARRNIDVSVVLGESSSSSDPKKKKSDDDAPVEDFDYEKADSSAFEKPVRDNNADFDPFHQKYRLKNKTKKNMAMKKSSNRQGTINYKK
The procedure:
as §1, §2

In another experiment the target is T4, GST-CRN-6 (C. elegans, UniProt P08515 1-218 = GST; P34508 1-373).
T4 construct: Two crn-6 cDNAs (700 bp and 1.1 kb) were isolated; the longer one made the GST fusion; also called CRN-6 GST-fusion protein
The procedure:
as §1, §2

In the experiment “GST-CRN-1” the target is B1. The procedure: as §1, §2
Experiment [3] addresses B6. The procedure: as §1, §2

T2 sequence (P08515 whole entry): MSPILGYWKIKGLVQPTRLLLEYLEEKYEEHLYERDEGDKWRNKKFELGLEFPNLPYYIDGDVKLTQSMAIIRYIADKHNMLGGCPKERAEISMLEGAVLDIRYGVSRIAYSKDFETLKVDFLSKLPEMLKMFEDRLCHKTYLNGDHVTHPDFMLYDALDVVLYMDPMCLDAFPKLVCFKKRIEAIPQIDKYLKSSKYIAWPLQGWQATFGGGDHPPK

In the case of B1, the binding result in experiment [1] was “no binding”.

B2: ^35S-Methionine labeled CYP-13 (enzyme)
chain: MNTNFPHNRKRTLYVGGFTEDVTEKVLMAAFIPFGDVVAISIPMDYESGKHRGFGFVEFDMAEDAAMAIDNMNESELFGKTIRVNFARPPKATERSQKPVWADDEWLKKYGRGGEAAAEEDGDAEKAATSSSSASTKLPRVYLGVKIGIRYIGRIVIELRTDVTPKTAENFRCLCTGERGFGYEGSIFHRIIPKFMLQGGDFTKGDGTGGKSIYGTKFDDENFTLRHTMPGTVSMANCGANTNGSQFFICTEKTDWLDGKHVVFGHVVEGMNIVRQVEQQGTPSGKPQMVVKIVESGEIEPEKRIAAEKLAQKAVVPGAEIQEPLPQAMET
notes: also called ^35S-CYP-13; CPY-13
For B2, the binding result (in experiment [2]; with GST-NUC-1; with GST-CRN-3; with GST-CRN-6) was “no binding” in each case.

B3: ^35S-Methionine labeled CRN-4 (enzyme, C. elegans, UniProt Q10905 1-298, looked up)
chain: MAYQHCPFDTLLILDFETTSDAANQDYPCEVIQFAIVAYDVPNDKIREDISFNKYVKPVLNRTLTKNCVDFTGIPQRSIDTADTFDVVYEQFQQWLITLGLEEGKFAFVCDSRQDLWRIAQYQMKLSNIQMPAFFRQYINLYKIFTNEMDRMGPKELSATTNIGKMNEYYDLPTIGRAHDAMDDCLNIATILQRMINMGAKVTVNELLTCCASWRRQPLVYNKEWRSSFMDAGKIFERVLPLVVTTIRAGDFRLEMYGVCRYCRKGMDVCGTSHQQTPHDLYKNEEDPIHFAKIAGYY
modifications: 35S-methionine labelled
For B3, the binding result with GST-CRN-3 and in the experiment with GST-CRN-6 was “no binding” in each case.

B4: ^35S-Methionine labeled NUC-1 (enzyme, C. elegans, UniProt Q17778 22-375, looked up)
chain: AFSCKDQSGNDVDWFAVYKMPIEKDDGSVTGLAGGVAWYYVDVNKKGTLTPSAKTLDDNDQAIAYTLQQYYDKQNDKTIFHVMYNDEPWGSKSTSGIKLEEILSNRVYSNYTHEDDSTSTAFGHTKGTIFFDGTSGVWLVHSVPLFPNPTKYEYPVSGHDYGQTMLCMTFKYAQLKSIGTQLFFNRPNIYSSNLPTNMAADNADLAKAIAGQYQKGQPFQSVIELETMAGYSFTNFAKSKEFNADLYDTLVAPTLKTDLVVETWRRGSEIPLDCKLTYHANDALSIHVGSTTAFSYTKDHSKMAHSADMTKPWVCIGDINRMTSQYVRGGGTTCISSSFLWKAYSVIATQNNCA
modifications: 35S-methionine labelled
On to B4, for which the binding result in the experiment with GST-NUC-1, with GST-CRN-1 and with GST-CRN-6 was “no binding” in each case.

In the case of B5, the binding result in experiment [3] is “no binding”.

As for B6, the binding result in the experiment with GST-CRN-1, with GST-CRN-3 and in the experiment with GST-CRN-6 was “no binding” in each case.

B7: ^35S-Methionine labeled CRN-5 (enzyme, C. elegans)
chain: MAGRLREMRCELSFLKNADGSACFSQGATCIWASCSGPGDVHASKASDEAMTLDISYRANCGDNKFNVLNNIIHSTLSNAINLELFPHTTISVTVHGIQDDGSMGAVAINGACFALLDNGMPFETVFCGVLIVRVKDELIIDPTAKQEAASTGRVLFSVCKGSDGHPEVCAMDAIGHWDFIQLEAAWSLAQPSASAIFDFYKTVMKRKLSVDEQ
Take B7: the binding result (in experiment [2]; in the experiment with GST-CRN-1; with GST-CRN-6) was “no binding” each time.

B8: GST-CRN-5 (other)
chain: MAGRLREMRCELSFLKNADGSACFSQGATCIWASCSGPGDVHASKASDEAMTLDISYRANCGDNKFNVLNNIIHSTLSNAINLELFPHTTISVTVHGIQDDGSMGAVAINGACFALLDNGMPFETVFCGVLIVRVKDELIIDPTAKQEAASTGRVLFSVCKGSDGHPEVCAMDAIGHWDFIQLEAAWSLAQPSASAIFDFYKTVMKRKLSVDEQ
notes: also called CRN-5 GST-fusion protein; not shown: GST carrier and the linker of vector pGEX4T-2
Turning to B8, the binding result in experiment [3] is recorded as “no binding”.
